Experimental data reported in patent US20150344570A1 (published 2015).

Target: T1, FcγRIIa R (human, UniProt P12318 34-217)
T1 construct: extracellular domain; also called FcgRIIa R type; 2aR
T1 sequence (looked up): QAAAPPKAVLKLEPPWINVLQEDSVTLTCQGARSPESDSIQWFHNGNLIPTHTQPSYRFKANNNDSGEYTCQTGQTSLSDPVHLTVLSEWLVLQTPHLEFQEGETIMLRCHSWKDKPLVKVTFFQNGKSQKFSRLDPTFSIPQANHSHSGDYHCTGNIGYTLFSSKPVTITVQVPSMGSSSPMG
Assay: SPR (Biacore), captured antibody, FcγR as analyte; relative binding activity
Description: Analysis of interaction between objective antibody and the FcγR was carried out using Biacore T100 (GE Healthcare). HBS-EP+ (GE Healthcare) was used as the running buffer, and the measurement temperature was set to 25° C. Chips produced by immobilizing the antigen peptide by the amine coupling method to a Series S Sencor Chip CM5 (GE Healthcare), or alternatively, chips produced by allowing preliminarily biotinylated antigen peptides to interact with and immobilize onto a Series S Sensor Chip SA (certified) (GE Healthcare) were used. Antibodies of interest were captured onto an antigen peptide-immobilized chip, and allowed to interact to each FcγR diluted with running buffer. To regenerate and repeatedly use the chip, the antibodies captured on the chip were washed off by reacting 10 mM glycine-HCl, pH 1.5.

B1: GpH7-B3 variant N325_15Y/GpL16-k0 (antibody, human IgG1, kappa)
heavy: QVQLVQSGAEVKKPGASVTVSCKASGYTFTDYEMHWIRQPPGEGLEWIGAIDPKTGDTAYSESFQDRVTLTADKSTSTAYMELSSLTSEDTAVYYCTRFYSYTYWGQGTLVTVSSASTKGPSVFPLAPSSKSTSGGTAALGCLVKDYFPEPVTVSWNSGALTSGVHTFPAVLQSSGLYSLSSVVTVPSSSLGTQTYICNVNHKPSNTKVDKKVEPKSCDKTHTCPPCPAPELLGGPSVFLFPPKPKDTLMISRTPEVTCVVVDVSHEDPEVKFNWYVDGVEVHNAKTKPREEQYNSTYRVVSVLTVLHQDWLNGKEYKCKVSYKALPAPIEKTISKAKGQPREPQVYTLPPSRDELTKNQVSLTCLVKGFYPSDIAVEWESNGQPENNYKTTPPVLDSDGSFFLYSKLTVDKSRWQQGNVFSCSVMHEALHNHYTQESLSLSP
light: DIVMTQSPLSLPVTPGEPASISCQASESLVHSNRNTYLHWYLQKPGQSPQLLIYKVSNRFSGVPDRFSGSGSGTDFTLKISRVEAEDVGVYYCSQNTHVPPTFGQGTKVEIERTVAAPSVFIFPPSDEQLKSGTASVVCLLNNFYPREAKVQWKVDNALQSGNSQESVTEQDSKDSTYSLSSTLTLSKADYEKHKVYACEVTHQGLSSPVTKSFNRGEC
notes: also called Ho Ab N325_15Y
  Ho/Con_2aR: 42.6 % (GpH7-B3/GpL16-k0 = 100)

B2: GpH7-A5/GpH7-B3 variant N325_01G/GpL16-k0 (antibody, human IgG1, kappa)
heavy 1: not shown
heavy 2: not shown
light: B1 light
notes: also called He Ab N325_01G
  He/Con_2aR: 107 % (GpH7-A5/GpH7-B3/GpL16-k0 = 100)

B3: GpH7-A5/GpH7-B3 variant A327_10E/GpL16-k0 (antibody, human IgG1, kappa)
heavy 1: not shown
heavy 2: not shown
light: B1 light
notes: also called He Ab A327_10E
  He/Con_2aR: 110 % (GpH7-A5/GpH7-B3/GpL16-k0 = 100)

B4: GpH7-B3 variant P238_09D/GpL16-k0 (antibody, human IgG1, kappa)
heavy: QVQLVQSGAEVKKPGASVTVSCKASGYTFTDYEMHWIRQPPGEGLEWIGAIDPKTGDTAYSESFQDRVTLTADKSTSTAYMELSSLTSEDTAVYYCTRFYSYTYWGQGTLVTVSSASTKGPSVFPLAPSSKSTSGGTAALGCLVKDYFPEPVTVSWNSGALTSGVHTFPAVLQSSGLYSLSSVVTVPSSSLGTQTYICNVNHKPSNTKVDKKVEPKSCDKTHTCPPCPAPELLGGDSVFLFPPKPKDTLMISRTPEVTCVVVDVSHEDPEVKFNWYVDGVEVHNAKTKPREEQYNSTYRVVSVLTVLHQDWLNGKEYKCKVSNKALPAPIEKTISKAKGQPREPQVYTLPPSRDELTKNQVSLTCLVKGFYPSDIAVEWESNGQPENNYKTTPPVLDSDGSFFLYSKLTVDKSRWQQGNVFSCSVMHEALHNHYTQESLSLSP
light: B1 light
notes: also called Ho Ab P238_09D
  Ho/Con_2aR: 13 % (GpH7-B3/GpL16-k0 = 100)

B5: GpH7-A5/GpH7-B3 variant A330_01G/GpL16-k0 (antibody, human IgG1, kappa)
heavy 1: not shown
heavy 2: not shown
light: B1 light
notes: also called He Ab A330_01G
  He/Con_2aR: 109 % (GpH7-A5/GpH7-B3/GpL16-k0 = 100)

B6: GpH7-B3 variant P238_15Y/GpL16-k0 (antibody, human IgG1, kappa)
heavy: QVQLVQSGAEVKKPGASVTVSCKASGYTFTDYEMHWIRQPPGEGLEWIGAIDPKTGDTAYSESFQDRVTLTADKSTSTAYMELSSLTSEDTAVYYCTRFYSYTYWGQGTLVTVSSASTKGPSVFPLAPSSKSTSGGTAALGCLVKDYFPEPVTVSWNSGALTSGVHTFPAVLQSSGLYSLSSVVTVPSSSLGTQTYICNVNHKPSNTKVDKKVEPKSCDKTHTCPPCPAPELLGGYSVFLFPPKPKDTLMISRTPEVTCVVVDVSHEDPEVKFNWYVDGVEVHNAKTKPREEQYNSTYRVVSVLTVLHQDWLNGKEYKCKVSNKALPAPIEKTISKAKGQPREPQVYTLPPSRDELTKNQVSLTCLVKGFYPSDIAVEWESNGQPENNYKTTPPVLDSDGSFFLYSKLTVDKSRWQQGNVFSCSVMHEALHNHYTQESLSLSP
light: B1 light
notes: also called Ho Ab P238_15Y
  Ho/Con_2aR: 95.9 % (GpH7-B3/GpL16-k0 = 100)

B7: GpH7-A5/GpH7-B3 variant A327_09D/GpL16-k0 (antibody, human IgG1, kappa)
heavy 1: not shown
heavy 2: not shown
light: B1 light
notes: also called He Ab A327_09D
  He/Con_2aR: 124 % (GpH7-A5/GpH7-B3/GpL16-k0 = 100)

B8: GpH7-B3 variant P331_03V/GpL16-k0 (antibody, human IgG1, kappa)
heavy: not shown
light: B1 light
notes: also called Ho Ab P331_03V
  Ho/Con_2aR: 89.1 % (GpH7-B3/GpL16-k0 = 100)

B9: GpH7-B3 variant P238_04F/GpL16-k0 (antibody, human IgG1, kappa)
heavy: not shown
light: B1 light
notes: also called Ho Ab P238_04F
  Ho/Con_2aR: 146 % (GpH7-B3/GpL16-k0 = 100)

B10: GpH7-B3 variant P271_09D/GpL16-k0 (antibody, human IgG1, kappa)
heavy: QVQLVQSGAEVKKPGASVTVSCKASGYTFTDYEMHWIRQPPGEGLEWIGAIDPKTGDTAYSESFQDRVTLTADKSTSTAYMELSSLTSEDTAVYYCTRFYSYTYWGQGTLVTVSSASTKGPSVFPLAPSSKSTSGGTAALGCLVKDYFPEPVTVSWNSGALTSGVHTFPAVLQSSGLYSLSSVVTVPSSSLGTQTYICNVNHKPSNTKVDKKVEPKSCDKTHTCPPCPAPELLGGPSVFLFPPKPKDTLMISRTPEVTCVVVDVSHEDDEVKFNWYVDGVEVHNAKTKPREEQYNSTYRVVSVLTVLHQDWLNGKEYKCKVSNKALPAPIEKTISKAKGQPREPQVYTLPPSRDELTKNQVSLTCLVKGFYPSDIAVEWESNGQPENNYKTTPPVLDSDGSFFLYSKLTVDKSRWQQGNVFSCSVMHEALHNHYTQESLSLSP
light: B1 light
notes: also called Ho Ab P271_09D
  Ho/Con_2aR: 92.4 % (GpH7-B3/GpL16-k0 = 100)

B11: GpH7-B3 variant P238_20W/GpL16-k0 (antibody, human IgG1, kappa)
heavy: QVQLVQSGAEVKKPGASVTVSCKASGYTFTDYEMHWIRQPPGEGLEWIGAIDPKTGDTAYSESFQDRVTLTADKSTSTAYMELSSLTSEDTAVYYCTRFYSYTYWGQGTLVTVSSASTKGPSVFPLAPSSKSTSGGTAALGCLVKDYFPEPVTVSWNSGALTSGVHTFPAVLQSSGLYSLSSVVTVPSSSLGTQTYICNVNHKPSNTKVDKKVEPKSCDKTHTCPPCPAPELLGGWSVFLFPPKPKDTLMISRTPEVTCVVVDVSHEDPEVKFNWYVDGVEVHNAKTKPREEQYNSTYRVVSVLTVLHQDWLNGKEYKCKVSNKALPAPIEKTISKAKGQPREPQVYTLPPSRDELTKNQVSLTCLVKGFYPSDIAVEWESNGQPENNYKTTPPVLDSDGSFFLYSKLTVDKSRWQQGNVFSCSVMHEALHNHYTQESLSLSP
light: B1 light
notes: also called Ho Ab P238_20W
  Ho/Con_2aR: 25.7 % (GpH7-B3/GpL16-k0 = 100)

B12: GpH7-B3 variant P271_08L/GpL16-k0 (antibody, human IgG1, kappa)
heavy: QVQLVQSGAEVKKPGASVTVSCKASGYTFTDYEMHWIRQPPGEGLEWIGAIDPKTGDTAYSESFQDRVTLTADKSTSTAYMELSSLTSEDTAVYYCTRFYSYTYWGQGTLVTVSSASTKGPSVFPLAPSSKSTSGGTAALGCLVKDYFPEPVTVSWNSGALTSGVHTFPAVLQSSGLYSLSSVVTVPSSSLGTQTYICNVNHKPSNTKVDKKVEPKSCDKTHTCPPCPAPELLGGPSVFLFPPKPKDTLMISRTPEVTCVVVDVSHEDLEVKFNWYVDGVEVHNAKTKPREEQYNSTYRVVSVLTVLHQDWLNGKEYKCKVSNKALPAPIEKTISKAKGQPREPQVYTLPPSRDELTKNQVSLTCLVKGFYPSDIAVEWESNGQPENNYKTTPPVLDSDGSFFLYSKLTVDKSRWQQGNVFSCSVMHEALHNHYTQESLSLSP
light: B1 light
notes: also called Ho Ab P271_08L
  Ho/Con_2aR: 102 % (GpH7-B3/GpL16-k0 = 100)

B13: GpH7-A5/GpH7-B3 variant A330_05P/GpL16-k0 (antibody, human IgG1, kappa)
heavy 1: not shown
heavy 2: not shown
light: B1 light
notes: also called He Ab A330_05P
  He/Con_2aR: 115 % (GpH7-A5/GpH7-B3/GpL16-k0 = 100)

B14: GpH7-B3 variant P238_16H/GpL16-k0 (antibody, human IgG1, kappa)
heavy: not shown
light: B1 light
notes: also called Ho Ab P238_16H
  Ho/Con_2aR: 25.5 % (GpH7-B3/GpL16-k0 = 100)

B15: GpH7-B3 variant P238_19Q/GpL16-k0 (antibody, human IgG1, kappa)
heavy: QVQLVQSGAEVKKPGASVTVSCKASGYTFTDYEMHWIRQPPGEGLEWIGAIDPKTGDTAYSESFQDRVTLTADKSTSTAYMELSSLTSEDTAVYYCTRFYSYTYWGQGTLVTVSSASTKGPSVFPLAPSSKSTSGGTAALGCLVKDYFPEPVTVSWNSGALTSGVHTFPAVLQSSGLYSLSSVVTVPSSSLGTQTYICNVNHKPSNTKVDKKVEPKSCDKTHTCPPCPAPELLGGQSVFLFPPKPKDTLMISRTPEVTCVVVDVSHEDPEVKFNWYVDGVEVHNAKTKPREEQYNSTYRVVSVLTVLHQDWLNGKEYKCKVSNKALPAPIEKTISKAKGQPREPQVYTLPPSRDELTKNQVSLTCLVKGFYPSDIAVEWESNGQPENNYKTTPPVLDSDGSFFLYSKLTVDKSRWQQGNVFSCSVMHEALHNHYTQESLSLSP
light: B1 light
notes: also called Ho Ab P238_19Q
  Ho/Con_2aR: 19.4 % (GpH7-B3/GpL16-k0 = 100)

B16: GpH7-B3 variant P331_02A/GpL16-k0 (antibody, human IgG1, kappa)
heavy: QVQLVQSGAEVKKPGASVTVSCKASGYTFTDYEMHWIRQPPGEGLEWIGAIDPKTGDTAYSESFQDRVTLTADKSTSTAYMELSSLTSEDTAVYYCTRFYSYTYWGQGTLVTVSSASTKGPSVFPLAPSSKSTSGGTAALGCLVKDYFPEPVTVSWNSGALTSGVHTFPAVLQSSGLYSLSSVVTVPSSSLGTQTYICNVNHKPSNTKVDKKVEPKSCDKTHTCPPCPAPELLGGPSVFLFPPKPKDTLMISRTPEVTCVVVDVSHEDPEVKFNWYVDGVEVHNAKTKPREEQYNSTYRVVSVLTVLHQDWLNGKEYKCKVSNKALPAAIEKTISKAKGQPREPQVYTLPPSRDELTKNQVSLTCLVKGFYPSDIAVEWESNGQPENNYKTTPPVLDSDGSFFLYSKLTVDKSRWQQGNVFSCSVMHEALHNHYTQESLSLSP
light: B1 light
notes: also called Ho Ab P331_02A
  Ho/Con_2aR: 102 % (GpH7-B3/GpL16-k0 = 100)

B17: GpH7-B3 variant P238_03V/GpL16-k0 (antibody, human IgG1, kappa)
heavy: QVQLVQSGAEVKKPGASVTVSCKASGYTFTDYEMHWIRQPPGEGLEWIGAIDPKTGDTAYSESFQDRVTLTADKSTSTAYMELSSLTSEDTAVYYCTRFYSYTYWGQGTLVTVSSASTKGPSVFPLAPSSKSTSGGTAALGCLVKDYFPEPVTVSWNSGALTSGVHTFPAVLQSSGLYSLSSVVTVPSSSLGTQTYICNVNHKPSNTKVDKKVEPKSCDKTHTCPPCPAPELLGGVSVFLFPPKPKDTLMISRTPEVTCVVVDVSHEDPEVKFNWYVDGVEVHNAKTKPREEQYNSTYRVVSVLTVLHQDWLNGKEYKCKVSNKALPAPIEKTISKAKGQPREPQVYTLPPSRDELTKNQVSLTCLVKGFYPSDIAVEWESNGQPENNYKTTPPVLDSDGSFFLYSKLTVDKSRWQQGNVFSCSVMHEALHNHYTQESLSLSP
light: B1 light
notes: also called Ho Ab P238_03V
  Ho/Con_2aR: 116 % (GpH7-B3/GpL16-k0 = 100)

B18: GpH7-B3 variant P238_10E/GpL16-k0 (antibody, human IgG1, kappa)
heavy: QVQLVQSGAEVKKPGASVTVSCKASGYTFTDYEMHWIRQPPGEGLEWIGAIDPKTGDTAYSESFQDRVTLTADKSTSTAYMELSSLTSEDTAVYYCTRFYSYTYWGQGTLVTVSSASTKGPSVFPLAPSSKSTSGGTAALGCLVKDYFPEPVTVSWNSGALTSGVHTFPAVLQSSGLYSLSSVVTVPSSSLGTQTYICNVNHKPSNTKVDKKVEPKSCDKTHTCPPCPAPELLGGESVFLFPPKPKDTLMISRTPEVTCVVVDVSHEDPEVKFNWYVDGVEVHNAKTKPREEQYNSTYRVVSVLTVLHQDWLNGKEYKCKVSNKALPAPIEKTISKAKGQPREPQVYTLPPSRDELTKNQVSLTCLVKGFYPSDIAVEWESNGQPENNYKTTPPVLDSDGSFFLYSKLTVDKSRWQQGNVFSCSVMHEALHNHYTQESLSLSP
light: B1 light
notes: also called Ho Ab P238_10E
  Ho/Con_2aR: 21.4 % (GpH7-B3/GpL16-k0 = 100)

B19: GpH7-B3 variant P331_04F/GpL16-k0 (antibody, human IgG1, kappa)
heavy: not shown
light: B1 light
notes: also called Ho Ab P331_04F
  Ho/Con_2aR: 106 % (GpH7-B3/GpL16-k0 = 100)

B20: GpH7-B3 variant N325_20W/GpL16-k0 (antibody, human IgG1, kappa)
heavy: not shown
light: B1 light
notes: also called Ho Ab N325_20W
  Ho/Con_2aR: 56 % (GpH7-B3/GpL16-k0 = 100)

B21: GpH7-B3 variant P238_06M/GpL16-k0 (antibody, human IgG1, kappa)
heavy: not shown
light: B1 light
notes: also called Ho Ab P238_06M
  Ho/Con_2aR: 88.9 % (GpH7-B3/GpL16-k0 = 100)

B22: GpH7-B3 variant P271_10E/GpL16-k0 (antibody, human IgG1, kappa)
heavy: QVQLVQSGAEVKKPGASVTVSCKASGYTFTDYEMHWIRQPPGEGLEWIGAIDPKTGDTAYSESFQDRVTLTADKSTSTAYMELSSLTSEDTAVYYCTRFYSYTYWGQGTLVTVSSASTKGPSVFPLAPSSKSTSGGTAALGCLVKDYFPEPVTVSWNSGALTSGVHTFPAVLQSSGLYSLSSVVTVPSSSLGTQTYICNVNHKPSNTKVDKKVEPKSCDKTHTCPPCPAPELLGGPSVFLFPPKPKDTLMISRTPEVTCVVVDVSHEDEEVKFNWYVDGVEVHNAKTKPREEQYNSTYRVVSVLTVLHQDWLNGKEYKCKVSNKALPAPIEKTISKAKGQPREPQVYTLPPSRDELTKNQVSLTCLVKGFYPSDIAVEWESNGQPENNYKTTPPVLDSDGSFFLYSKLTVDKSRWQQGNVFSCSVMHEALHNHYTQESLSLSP
light: B1 light
notes: also called Ho Ab P271_10E
  Ho/Con_2aR: 88.8 % (GpH7-B3/GpL16-k0 = 100)

B23: GpH7-A5/GpH7-B3 variant A330_11K/GpL16-k0 (antibody, human IgG1, kappa)
heavy 1: not shown
heavy 2: not shown
light: B1 light
notes: also called He Ab A330_11K
  He/Con_2aR: 110 % (GpH7-A5/GpH7-B3/GpL16-k0 = 100)
